In the supplement of paper PMC9233669:
Fewer inactive variants are shown than the library holds.

Columns and labels:
[1] = system: biotinyl-Phe-oxazolone; assay: self-aminoacylation, catalytic enhancement (BFO) (fold over background); higher = more active; k-Seq, kA / k0A0; sequences stand for … in GGGAAUGGAUCCACAUCUACGAAUUC…UUCACUGCAGACUUGACGAAGCUG
In short: (§1)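 Mutagenized RNA pools with a 21-nt variable region (0.43 μM) reacted with each biotinyl-aminoacyl-oxazolone at 2–1250 μM. Reactions ran in 50 μL HEPES/NaCl/KCl/MgCl2/CaCl2 buffer with 5% acetonitrile, pH 6.9–7.0, for 90 minutes at room temperature. Streptavidin-captured RNA was quantified by triplicate qPCR and Illumina sequencing, and per-sequence fraction reacted was fit to a pseudo-first-order model with 1000 bootstraps. Catalytic enhancement is median kA divided by the uncatalyzed rate, the low-activity peak of a bimodal Gaussian fit.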

[2] = system: biotinyl-Ile-oxazolone; assay: self-aminoacylation, catalytic enhancement (BIO) (fold over background); higher = more active; k-Seq, kA / k0A0; sequences stand for … in GGGAAUGGAUCCACAUCUACGAAUUC…UUCACUGCAGACUUGACGAAGCUG
In short: as §1

[3] = system: biotinyl-Met-oxazolone; assay: self-aminoacylation, catalytic enhancement (BMO) (fold over background); higher = more active; k-Seq, kA / k0A0; sequences stand for … in GGGAAUGGAUCCACAUCUACGAAUUC…UUCACUGCAGACUUGACGAAGCUG
In short: as §1

[4] = system: biotinyl-Val-oxazolone; assay: self-aminoacylation, catalytic enhancement (BVO) (fold over background); higher = more active; k-Seq, kA / k0A0; sequences stand for … in GGGAAUGGAUCCACAUCUACGAAUUC…UUCACUGCAGACUUGACGAAGCUG
In short: as §1

[5] = system: biotinyl-Leu-oxazolone; assay: self-aminoacylation, catalytic enhancement (BLO) (fold over background); higher = more active; k-Seq, kA / k0A0; sequences stand for … in GGGAAUGGAUCCACAUCUACGAAUUC…UUCACUGCAGACUUGACGAAGCUG
In short: as §1

[6] = system: biotinyl-Trp-oxazolone; assay: self-aminoacylation, catalytic enhancement (BWO) (fold over background); higher = more active; k-Seq, kA / k0A0; sequences stand for … in GGGAAUGGAUCCACAUCUACGAAUUC…UUCACUGCAGACUUGACGAAGCUG
In short: as §1

| Sequence | self-aminoacylation [1] | self-aminoacylation [2] | self-aminoacylation [3] | self-aminoacylation [4] | self-aminoacylation [5] | self-aminoacylation [6] |
| --- | --- | --- | --- | --- | --- | --- |
| AAGGCUGCUAAUAGUCGCAAG [Fam3.1 aminoacylation ribozyme variant] | 20 | 1.73 | 2.04 | 1.38 | 1.64 | 7.19 |
| UUACUUCAAACAAUCGAUCUG [Fam1A.1 aminoacylation ribozyme variant] | 1.8 | 0.852 | 0.711 | 0.719 | 0.824 | 0.866 |
| CUACAUCAAACAAUCGGUCUC [Fam1A.1 aminoacylation ribozyme variant] | 1.64 | 0.575 | 0.683 | 0.779 | 0.532 | 0.882 |
| AUUCACCCAGGUCAUCGGGGG [Fam2.2 aminoacylation ribozyme variant] | 11.7 | 1.86 | 2.1 | 1.6 | 2.17 | 1.92 |
| CUACUUCAAACGAUCGAUCUG [Fam1A.1 aminoacylation ribozyme variant] | 0.425 | 0.55 | 0.47 | 0.584 | 0.485 | 0.354 |
| AUGCACCUAGGUCAACGGGUG [Fam2.2 aminoacylation ribozyme variant] | 14.2 | 2.45 | 2.51 | 1.95 | 2.68 | 2.21 |
| AUUUACCUAGGUCAUCGGGUA [Fam2.2 aminoacylation ribozyme variant] | 218 | 14.1 | 29.5 | 12.3 | 39.9 | 22.2 |
| AUUCACCUAGGUCAUCGCGCG [Fam2.2 aminoacylation ribozyme variant] | 22.4 | 5.42 | 5.13 | 5.13 | 7.72 | 3.32 |
| AUUACCCUGGUAAUCGGGUGA [Fam2.1 aminoacylation ribozyme variant] | 86.9 | 4.26 | 12.4 | 4.83 | 13.1 | 12.1 |
| CUACUUUAAACAGUCGGUCUG [Fam1A.1 aminoacylation ribozyme variant] | 0.582 | 0.837 | 0.765 | 0.845 | 0.812 | 0.651 |
| CUACACUUCAAACAAUCGGUC [Fam1B.1 aminoacylation ribozyme variant] | 88.2 | 1.22 | 1.34 | 1.27 | 2.08 | 39 |
| AAGUUUGCUAAUAGCCGUAAG [Fam3.1 aminoacylation ribozyme variant] | 18.2 | 1.3 | 1.39 | 1.36 | 0.898 | 7.16 |
| CCACACCUCAAGCAAUCAGUC [Fam1B.1 aminoacylation ribozyme variant] | 1.26 | 0.843 | 0.804 | 0.856 | 0.6 | 0.558 |
| CUAUUUCAAACAACCGGUCUG [Fam1A.1 aminoacylation ribozyme variant] | 0.87 | 0.992 | 0.85 | 0.861 | 0.844 | 0.827 |
| CCACCCUUCAAGCAAUCGGUC [Fam1B.1 aminoacylation ribozyme variant] | 19.9 | 1.05 | 0.936 | 1.32 | 1.16 | 11.3 |
| AUUACCCUGGUCAUCGGGUGG [Fam2.1 aminoacylation ribozyme variant] | 395 | 22.6 | 68 | 26.3 | 80.6 | 81.4 |
| AUUUCCCUGGUCAUAGAGUGA [Fam2.1 aminoacylation ribozyme variant] | 61.5 | 4.67 | 9.7 | 4.88 | 9.78 | 12.2 |
| AUUCACCUAGGUCUUCGGUUG [Fam2.2 aminoacylation ribozyme variant] | 9.48 | 1.55 | 1.76 | 1.41 | 1.75 | 1.72 |
| CCACACUUCAAGCAAUCAGUA [Fam1B.1 aminoacylation ribozyme variant] | 1.17 | 0.983 | 0.861 | 0.842 | 0.899 | 0.842 |
| AAGUUUGCGAAUAGUCACAAG [Fam3.1 aminoacylation ribozyme variant] | 1.66 | 1.17 | 0.933 | 0.962 | 0.774 | 0.863 |
| AUGUUUGCUAAUAGUCACAAG [Fam3.1 aminoacylation ribozyme variant] | 5.37 | 1.24 | 1.17 | 1.01 | 1.07 | 2.35 |

| Sequence | self-aminoacylation [1] | self-aminoacylation [2] | self-aminoacylation [3] | self-aminoacylation [4] | self-aminoacylation [5] | self-aminoacylation [6] |
| --- | --- | --- | --- | --- | --- | --- |
| CUGCUUCAAACAAUUGGUCUG [Fam1A.1 aminoacylation ribozyme variant] | 1.54 | 0.789 | 0.715 | 0.657 | 0.726 | 1.19 |
| CUACUUCAAACAAUCGGUGAG [Fam1A.1 aminoacylation ribozyme variant] | 1.5 | 0.901 | 1.19 | 1.03 | 1.05 | 0.907 |
| AAGUUUGCUUAUGGUCGCAAG [Fam3.1 aminoacylation ribozyme variant] | 0.863 | 0.54 | 0.728 | 0.727 | 0.603 | 0.782 |
| AAGUUUGCUAAACGUCGCAAG [Fam3.1 aminoacylation ribozyme variant] | 0.887 | 0.739 | 0.608 | 0.542 | 0.537 | 0.603 |
| CCACAUUUCAAGCAAUUGGUC [Fam1B.1 aminoacylation ribozyme variant] | 0.932 | 1.22 | 1.17 | 0.994 | 0.857 | 0.656 |
| AUUCACCUAGGUCGUCGGAUG [Fam2.2 aminoacylation ribozyme variant] | 0.37 | 0.909 | 0.982 | 1.12 | 0.929 | 0.507 |
| CUCCUUCAAACAUUCGGUCUG [Fam1A.1 aminoacylation ribozyme variant] | 3.15 | 1.24 | 1.31 | 1.32 | 1.05 | 1.66 |
| AUUACCCUGUUCAUUGAGUGA [Fam2.1 aminoacylation ribozyme variant] | 83.6 | 5.73 | 13.8 | 5.4 | 12.7 | 16.3 |
| CUACUUCAAACACUCGGUGUG [Fam1A.1 aminoacylation ribozyme variant] | 4.18 | 1.81 | 1.72 | 1.59 | 1.5 | 1.63 |
| AUUAACCUUGUCAUCGAGUGA [Fam2.1 aminoacylation ribozyme variant] | 17.6 | 3.25 | 6.16 | 3.39 | 6.72 | 7.59 |
| AGUCACCUACGUCAUCGGGUG [Fam2.2 aminoacylation ribozyme variant] | 32.4 | 3.49 | 4.95 | 4.21 | 6.83 | 5.27 |
| GUUACCCUGGUUAUCGAGUGA [Fam2.1 aminoacylation ribozyme variant] | 57.6 | 5.48 | 11.6 | 5.74 | 11.8 | 13 |
| AUUACCCGGGUCAUCGUGUGA [Fam2.1 aminoacylation ribozyme variant] | 39 | 2.6 | 4.88 | 3.17 | 5.65 | 5.65 |
| GCACACUUUAAGCAAUCGGUC [Fam1B.1 aminoacylation ribozyme variant] | 1.39 | 1.3 | 1.04 | 1.17 | 1.11 | 1.44 |
| UCUCACCUAGGUCAUCGGGUG [Fam2.2 aminoacylation ribozyme variant] | 16.1 | 2.33 | 3.73 | 3.09 | 3.81 | 3.84 |
| GAGUUUGCCAAUAGUCGCAAG [Fam3.1 aminoacylation ribozyme variant] | 4.39 | 1.7 | 1.1 | 1.48 | 1.09 | 2.08 |
| AUUCAACUAGGUCCUCGGGUG [Fam2.2 aminoacylation ribozyme variant] | 35.7 | 3.44 | 5.22 | 3.32 | 7.66 | 5.55 |
| AUUACCCAGGUCAUCUAGUGA [Fam2.1 aminoacylation ribozyme variant] | 59.3 | 4.62 | 10.7 | 5.97 | 9.76 | 12.2 |
| AAGUUUGCUAACAAUCGCAAG [Fam3.1 aminoacylation ribozyme variant] | 1.03 | 0.619 | 0.63 | 0.599 | 0.591 | 0.717 |
| AAGCUUGCUAAUAGUAGCAAG [Fam3.1 aminoacylation ribozyme variant] | 2.27 | 1.39 | 1.08 | 1.3 | 1.55 | 2.48 |
| AAGUUAGCAAAUAGUCGCAAG [Fam3.1 aminoacylation ribozyme variant] | 2.37 | 1.42 | 1.44 | 1.23 | 1.32 | 1.36 |
